From patent publication US20250382355A1 (Merck Sharp & Dohme, published 2025) come the findings set out here.

For test [1], the target named is T1, SARS-CoV-2 prefusion-stabilized spike protein (SARS-CoV-2-PreS) (SARS-CoV-2, UniProt P0DTC2 14-1208). In words: ELISA. (In an ELISA, binding on a coated surface is turned into a signal by an enzyme label.)
Test [2] addresses SARS-CoV-2 Alpha B.1.1.7 spike on pseudovirus (SARS-CoV-2). In words: cell-based or functional assay.
For test [3], the target named is SARS-CoV-2 Beta B.1.351 spike on pseudovirus (SARS-CoV-2). Description: cell-based or functional assay.
For test [4], the target named is SARS-CoV-2 Gamma P.1 spike on pseudovirus (SARS-CoV-2). In words: cell-based or functional assay.
In test [5] the target is SARS-CoV-2 Omicron spike on pseudovirus (SARS-CoV-2). Description: cell-based or functional assay.
The target in test [6] is T1, SARS-CoV-2 prefusion-stabilized spike …. In words: Biacore, apparent affinity. Background: SPR reads the build-up and loss of mass on a sensor chip optically.
In test [7] the target is T2, Biotinylated CoV2 Spike ECD PreS-AVI protein (SARS-CoV-2, UniProt P0DTC2 14-1208). In words: Octet binning; competitor 7A9. For orientation: Biolayer interferometry detects binding as a change in optical thickness at a sensor tip.
Test [8] addresses T2, Biotinylated CoV2 Spike ECD PreS-AVI …. Description: Octet binning; competitor 8E9.
Test [9] has the same target. In words: Octet binning; competitor 9B2.
For test [10] the target is unchanged. In words: Octet binning; competitor 11F8.
Test [11] shares this target. In words: Octet binning; competitor 13C8.
Test [12] shares this target. In words: Octet binning; competitor 15H1.
Test [13] shares this target. In words: Octet binning; competitor 15H7.
Test [14] has the same target. Description: Octet binning; competitor 1A11.
For test [15] the target is unchanged. In words: Octet binning; competitor Std-A.
For test [16] the target is unchanged. In words: Octet binning; competitor Std-B.
The target is the same in test [17]. In words: Octet binning; competitor Std-D.
Test [18] has the same target. In words: Octet binning; competitor 19B8.
For test [19] the target is unchanged. Description: Octet binning; competitor 20D11.

Residue numbers refer to the chain shown, from its start. Bounds are passed on as bounds.

B1: 10B8 VHH-Fc (Fc fusion)
chain: QVQLVESGGGLVQPGGSLRLSCAASGITLDYYAIAWFRQAPGKEREGVSCFCSSDGDIRYADSVKGRFTISRDNAKNTVYLQMNSLKPEDTAVYYCATERVYSSTWFFHRYSELDFGSWGRGTQVTVSS
As to B1, the midpoint of the response in test [1], the EC50, lay at 1.35 nM. Also, the “pseudovirus neutralization IC50” value in test [2] is 0.38 nM; in [3] it was 0.23 nM; in test [4], 0.21 nM; in [5] it was 4.1 nM. In addition, the Kd in test [6] is less than 0.2 nM. Also, the binning response in test [7] was 0.42; in [8], 0.09; in [9], 0.12; in test [10], 0.1; in [11] it was 0.12; in test [12], 0.12. In addition, the binning response in [13] amounted to 0.12; in test [14] it was 0.1; in test [15], 0.39; in test [16], 0.36; in test [17] it was 0.05.

B2: 19B8 VHH-Fc (Fc fusion)
chain: QVQLVESGGGLVQAGGSLRLSCAASGRTFTNYAMGWFRQAPGKEREFVAAISWSGGGTNYADSVKGRFTISRDNAKNTVYLQMNSPKPEDTAVYYCATTLGYYGSSSRLYEYWGQGTQVTVSS
In turn, B2 came in with an EC50 in [1] of 0.06 nM. Also, the “pseudovirus neutralization IC50” value in test [5] is 47 nM. Besides, the Kd in test [6] was found to be 1.1 nM. The figures for the binning response in [18] and in test [19] were 0.08 and 0.48, respectively.

B3: 16H7 VHH-Fc (Fc fusion)
chain: QVQLVESGGGLVQAGGSLRLSCAASGRAFSKDTMGWFRQAPGKEREFVAVISASGDSTYYADFVKGRFTISRDNAKNTEYLQMNSLKPEDTAVYHCAADGARAYYSINAHRYSWAYNYWGQGTQVTVSS
As for B3, a half-maximal effect in test [1] (EC50) was put at 0.08 nM. Besides, the Kd in test [6] was determined as 3 nM. The figures for the binning response in [18] and in test [19] were 0.19 and 0.56, respectively.

B4: 6A1 VHH-Fc (Fc fusion)
chain: QVQLVESGGGLVQAGGSLRLSCTASGNIFSVNVMGWHRQAPGKRRELVAALTNDGRRNYADSVKGRFTISRDNAKNTIYLEMNSLKPEDTAVYYCGTGTLESGFNSWGQGLQVTVSS
Molecule B4 came in with an EC50 in test [1] of 0.44 nM. The Kd in [6] stood at 1.6 nM. For the same molecule, the binning response worked out at 0.4 in [18] and 0.37 in test [19].

B5: 20D11 VHH-Fc (Fc fusion)
chain: QVQLVESGGGLVQAGGSLRLSCAASGRTSSIYSVGWFRQAPGKERELVAGITWSGGTTYYSDSVKGRFTISRDNAKNTVNLQMNNLKPEDTAIYYCAVDRYSMTMSARDYDYWGQGTQVTVSS
As for B5, a half-maximal effect in test [1] (EC50) was put at 0.62 nM. Moreover, the Kd in test [6] is less than 0.2 nM. In addition, the binning response stood at 0.43 in test [18] and 0.04 in test [19].

B6: 5G11 VHH-Fc (Fc fusion)
chain: B5 chain with S29F, S33A, E46D, L47F, N80Y, R100T, M105L, D109S
As to B6, in [1], the response was half-maximal at 0.4 nM (EC50). For the same molecule, in [6], the Kd was 1.5 nM. In addition, the binning response was 0.4 in [18] and 0.05 in [19].

B7: 14F3 VHH-Fc (Fc fusion)
chain: B5 chain with S33G, G50L, R72K, N80F, R100T, D111E
B7: the concentration giving a half-maximal response (EC50) in test [1] stood at 0.05 nM. For the same molecule, the Kd in [6] is less than 0.2 nM. In addition, the binning response in test [18] came out at 0.46; in test [19], 0.04.

B8: 11F5 VHH-Fc (Fc fusion)
chain: QVQLVESGGGAVQAGDSLRLSCTASGRTFSTYAVGWFRQAPGKERELLAAITGSGRNPYYPDSLKGRFTISREYAKLPVYLQMNSLKPEDTAVYYCAARRGAIATMPLDYDHWGQGTQVTVSS
For the molecule B8, the 50% effective concentration (EC50) in test [1] came to 0.12 nM. In addition, the Kd in test [6] is less than 0.2 nM. In addition, the binning response in [18] was determined as 0.52; in test [19] it was 0.1.

For orientation: EC50 means the concentration at which the effect is half-maximal.
